The values below come from patent publication US20210380703A1 (RIGEL PHARMACEUTICALS, published 2021).

Experiment [1] deals with T1, biotinylated goat anti-human kappa light chain.
T1 construct: Positive control of the ELISA
The experiment can be described thus: ELISA; positive control. A digest of the protocol: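 mAb binding by ELISA; antigens: hu ACVR2A, mu ACVR2A; pos ctrl biotinylated goat anti-hu kappa LC; neg ctrl hu Fc.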

Experiment [2] concerns the target mouse ACVR2A (mouse, UniProt P27038 20-135, limits assumed). The experiment can be described thus: ELISA. A digest of the protocol:
(§1)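 Monoclonal antibodies were first applied to human or mouse ACVR2A, alongside biotinylated goat anti-human kappa light chain (positive control) and human Fc (negative control); binding was then determined by ELISA.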
In general terms: In an ELISA, binding on a coated surface is turned into a signal by an enzyme label.

For experiment [3], the target named is human ACVR2A (human, UniProt P27037 20-135, limits assumed). The experiment can be described thus: ELISA. In a few lines: as §1
Sequence of human ACVR2A (P27037 20-135 limits assumed): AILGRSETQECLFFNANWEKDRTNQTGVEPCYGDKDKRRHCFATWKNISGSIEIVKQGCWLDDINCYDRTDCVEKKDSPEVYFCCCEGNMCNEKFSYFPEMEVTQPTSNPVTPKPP
Also: test concentration or dose not given here.

Sequence of mouse ACVR2A (P27038 20-135 limits assumed): as the sequence (P27037 20-135 limits assumed) above, with K20R, V73I counted along it

B1: 369_B12 (antibody, V domains shown)
VH: EVQLLESGGGLVQPGGSLRLSCAASGFTFDSYSMNWVRQAPGKGLEWVSGINYNGGYKSYADSVKGRFTISRDNSKNTLYLQMNSLRAEDTAVYYCARSATWHDTHLDYWGQGTLVTVSS
VL: DIQMTQSPSSLSASVGDRVTITCRASQSILTYVNWYQQKPGKAPKLLIYATTSLASGVPSRFSGSGSGTDFTLTISSLQPEDFATYYCQQSYDSPLTFGGGTKVEIK
notes: VH/VL only
As for B1, the optical density in experiment [1] was determined as 3.56 OD; in experiment [2] it was 2.76 OD; in experiment [3] it was 2.67 OD.

B2: 370_G12 (antibody, V domains shown)
VH: EVQLLESGGGLVQPGGSLRLSCAASGFTFSSYSMNWVRQAPGKGLEWVAGINYNGGYKGYADSVKGRFTISRDNSKNTLYLQMNSLRAEDTAVYYCARSATWHDTALDYWGQGTLVTVSS
VL: DIQMTQSPSSLSASVGDRVTITCRASQSIITYLNWYQQKPGKAPKLLIYAATSLASGVPSRFSGSGSGTDFTLTISSLQPEDFATYYCQQSDESPLTFGGGTKVEIK
notes: VH/VL only
On to B2, for which the figures for the optical density in experiment [1], in experiment [2] and in experiment [3] were 3.52 OD, 1.6 OD and 1.34 OD, respectively.

B3: 369_G07 (antibody, V domains shown)
VH: EVQLLESGGGLVQPGGSLRLSCAASGFTFSSYSMNWVRQAPGKGLEWVAGINYNGGYTSYADSVKGRFTISRDNSKNTLYLQMNSLRAEDTAVYYCARSATWHDTHLDYWGQGTLVTVSS
VL: DIQMTQSPSSLSASVGDRVTITCRASQSILTYVNWYQQKPGKAPKLVIYAATSRASGVPSRFSGSGSGTDFTLTISSLQPEDFATYYCQQSYDNPLTFGGGTKVEIK
notes: VH/VL only
Turning to B3, the results for the optical density in experiment [1], in experiment [2] and in experiment [3] were 2.98 OD, 3.37 OD and 3.32 OD, respectively.

B4: 369_D11 (antibody, V domains shown)
VH: EVQLLESGGGLVQPGGSLRLSCAASGFTFSSYGMHWVRQAPGKGLEWVASINYNGGYTSYADSVKGRFTISRDNSKNTLYLQMNSLRAEDTAVYYCARSATWHDTHLDYWGQGTLVTVSS
VL: DIQMTQSPSSLSASVGDRVTITCRASQSILTYLNWYQQKPGKAPKLVIYAATSLASGVPSRFSGSGSGTDFTLTISSLQPEDFATYYCQQSDELPLTFGGGTKVEIK
notes: VH/VL only
B4: the results for the optical density in experiment [1], in experiment [2] and in experiment [3] were 3.45 OD, 2.99 OD and 2.99 OD, respectively.

B5: 370_A06 (antibody, V domains shown)
VH: EVQLLESGGGLVQPGGSLRLSCAASGFTFSSYSMNWVRQAPGKGLEWVASINYNSGYKSYADSVKGRFTISRDNSKNTLYLQMNSLRAEDTAVYYCARSATWHDTHLDYWGQGTLVTVSS
VL: DIQMTQSPSSLSASVGDRVTITCRASQSIVTYLNWYQQKPGKAPKLVIYAATSLASGVPSRFSGSGSGTDFTLTISSLQPEDFATYYCQQSYDLPLTFGGGTKVEIK
notes: VH/VL only
As for B5, the optical density in experiment [1] is 3.47 OD; in experiment [2] it was 2.77 OD; in experiment [3], 2.59 OD.

B6: 370_C04 (antibody, V domains shown)
VH: EVQLLESGGGLVQPGGSLRLSCAASGFTFSSYGMNWVRQAPGKGLEWVASINYNSGYTSYADSVKGRFTISRDNSKNTLYLQMNSLRAEDTAVYYCARSATWHDTHLDYWGQGTLVTVSS
VL: DIQMTQSPSSLSASVGDRVTITCRASQSILSYLNWYQQKPGKAPKLLIYAASSLQSGVPSRFSGSGSGTDFTLTISSLQPEDFATYYCQQSYENPLTFGGGTKVEIK
notes: VH/VL only
For B6, the optical density in experiment [1] turned out to be 3.6 OD; in experiment [2], 2.63 OD; in experiment [3], 2.32 OD.

B7: 369_F07 (antibody, V domains shown)
VH: EVQLLESGGGLVQPGGSLRLSCAASGFTFDSYSMNWVRQAPGKGLEWVAGINYNGGYKSYADSVKGRFTISRDNSKNTLYLQMNSLRAEDTAVYYCARSATWHDTHLDYWGQGTLVTVSS
VL: DIQMTQSPSSLSASVGDRVTITCRASQSILSYVNWYQQKPGKAPKLVIYAATSRASGVPSRFSGSGSGTDFTLTISSLQPEDFATYYCQQSYESPLTFGGGTKVEIK
notes: VH/VL only
As to B7, the optical density in experiment [1] was found to be 3.47 OD; in experiment [2], 3.43 OD; in experiment [3], 3.43 OD.

B8: 370_F08 (antibody, V domains shown)
VH: EVQLLESGGGLVQPGGSLRLSCAASGFTFDSYSMNWVRQAPGKGLEWVAGINYNGGYTSYADSVKGRFTISRDNSKNTLYLQMNSLRAEDTAVYYCARSATWHDTHLDYWGQGTLVTVSS
VL: DIQMTQSPSSLSASVGDRVTITCRASQSIISYVNWYQQKPGKAPKLLIYAATSRHSGVPSRFSGSGSGTDFTLTISSLQPEDFATYYCQQSYNLPLTFGGGTKVEIK
notes: VH/VL only
Turning to B8, the values for the optical density in experiment [1], in experiment [2] and in experiment [3] were 3.59 OD, 2.99 OD and 2.34 OD, respectively.

B9: 369_C10 (antibody, V domains shown)
VH: EVQLLESGGGLVQPGGSLRLSCAASGFTFSSYSMNWVRQAPGKGLEWVANINYNGGYTSYADSVKGRFTISRDNSKNTLYLQMNSLRAEDTAVYYCARSATWHDTALDYWGQGTLVTVSS
VL: DIQMTQSPSSLSASVGDRVTITCRASQSIVTYLNWYQQKPGKAPKLLIYAATSLHSGVPSRFSGSGSGTDFTLTISSLQPEDFATYYCQQSDSLPLTFGGGTKVEIK
notes: VH/VL only
Turning to B9, the figures for the optical density in experiment [1], in experiment [2] and in experiment [3] were 3.37 OD, 2.46 OD and 2.48 OD, respectively.

B10: 369_F12 (antibody, V domains shown)
VH: EVQLLESGGGLVQPGGSLRLSCAASGFTFSSYSMNWVRQAPGKGLEWVASINYNSGYKSYADSVKGRFTISRDNSKNTLYLQMNSLRAEDTAVYYCARSATWHDTHLDYWGQGTLVTVSS
VL: DIQMTQSPSSLSASVGDRVTITCRASQSIISYLNWYQQKPGKAPKLLIYAVTSLASGVPSRFSGSGSGTDFTLTISSLQPEDFATYYCQQSYENPLTFGGGTKVEIK
notes: VH/VL only
Regarding B10, the optical density in experiment [1] was 3.6 OD; in experiment [2] it was 2.82 OD; in experiment [3], 2.73 OD.

B11: 370_E07 (antibody, V domains shown)
VH: EVQLLESGGGLVQPGGSLRLSCAASGFTFDSYSMNWVRQAPGKGLEWVANINYNGGYTGYADSVKGRFTISRDNSKNTLYLQMNSLRAEDTAVYYCARSATWHDTHLDYWGQGTLVTVSS
VL: DIQMTQSPSSLSASVGDRVTITCRASQSILTYLNWYQQKPGKAPKLLIYAATSRASGVPSRFSGSGSGTDFTLTISSLQPEDFATYYCQQSYDNPLTFGGGTKVEIK
notes: VH/VL only
In the case of B11, the optical density in experiment [1] came out at 3.45 OD; in experiment [2], 3.5 OD; in experiment [3] it was 3.44 OD.

B12: 370_B05 (antibody, V domains shown)
VH: EVQLLESGGGLVQPGGSLRLSCAASGFTFSSYGMNWVRQAPGKGLEWVASINYNGGYTSYADSVKGRFTISRDNSKNTLYLQMNSLRAEDTAVYYCARSATWHDTHLDYWGQGTLVTVSS
VL: DIQMTQSPSSLSASVGDRVTITCRASQSILTYVNWYQQKPGKAPKLVIYAATSRASGVPSRFSGSGSGTDFTLTISSLQPEDFATYYCQQSYENPLTFGGGTKVEIK
notes: VH/VL only
Take B12: the optical density in experiment [1] is 3.49 OD; in experiment [2] it was 3.11 OD; in experiment [3], 2.84 OD.

B13: 369_E10 (antibody, V domains shown)
VH: EVQLLESGGGLVQPGGSLRLSCAASGFTFSSYSMNWVRQAPGKGLEWVSNINYNGGYKSYADSVKGRFTISRDNSKNTLYLQMNSLRAEDTAVYYCARSATWHDTALDYWGQGTLVTVSS
VL: DIQMTQSPSSLSASVGDRVTITCRASQSILSYVNWYQQKPGKAPKLVIYAATSRASGVPSRFSGSGSGTDFTLTISSLQPEDFATYYCQQSYDLPLTFGGGTKVEIK
notes: VH/VL only
In the case of B13, the optical density in experiment [1] stood at 3.59 OD; in experiment [2] it was 3.53 OD; in experiment [3], 3.36 OD.
